US8883734B2, “Proteasome-activating anti-aging peptides and compositions containing same” (ISP Investments Inc., priority 2009, dated 2014)
Ends that are not written are not given here.

How the values were obtained:
Ki67 protein = assay: Ki67 proliferation marker immunolabelling on experimentally aged keratinocytes in culture; format: cell-based, human; details: 1% peptide in medium; keratinocytes aged 20 days in culture; immunofluorescence
Protocol: A study of the activator effect of peptide SEQ ID No. 2 was carried out by evaluating the expression of the cellular proliferation marker protein on experimentally aged keratinocytes in culture. The analysis is carried out after 20 days of culture.
The keratinocytes are cultured for 20 days in a CO2 incubator at 37° C. under humidified atmosphere. The cells are treated directly by adding 1% peptide directly into the medium. Cells that are not treated but aged in the same manner are used as control cells. For experimental requirements, the cells are seeded in 8-well labteck, maintained in culture and treated in the same support until the day of labeling. On the day of immunolabelling, the cells are rinsed by using phosphate buffer and then fixed with cold methanol before labeling.
Immunolabelling is carried out by a rabbit anti-Ki67 antibody (Abcam) diluted to 1/1000th and a secondary antibody to 1/1000th coupled with an Alexa fluor monkey anti-rabbit fluorochrome (Molecular probes).
The slides are then mounted in a suitable medium and observed by epifluorescence microscope (Nikon Eclipse E E600).

20S proteasome = target: T1, 20S proteasome (Homo sapiens, UniProt P28072+P28074+Q99436); assay: Enzymatic activity of 20S proteasome on aged keratinocytes maintained in culture (AMC fluorogenic substrates); format: cell-based; details: 1% peptide in medium, renewed 3 times per week, 15 days culture
T1 construct: endogenous in cells; host or cells: experimentally aged normal human keratinocytes (NHK); crude cell lysate
Protocol: Experimentally aged keratinocytes maintained in culture for 15 days are treated with 1% of peptide SEQ ID No. 6. The enzymatic activities of 20S proteasome are then studied. In fact, 20S proteasome is the subunit responsible for enzymatic hydrolysis. Three enzymatic activities may be studied: Trypsin-like, chymotrypsin-like and peptidylglutamyl-peptide hydrolase (PGPH) activity. We are proposing to study these activities by a specific enzymatic assay of each activity.
The aged keratinocytes are maintained in culture for 15 days. The cell treatment is carried out by adding a solution at 1% of peptide SEQ ID No. 6 directly into the medium, renewed 3 times per week for the time of the experiment. The assay of each activity was carried out by using specific substrates labeled by a fluorescent compound 7-amido-4-methylcoumarin (AMC). After cleavage, the AMC excitation wavelength is 350 nm, the fluorescence is read at 440 nm. The fluorescence intensity is proportional to the quantity of fluorochrome obtained and consequently, this quantity is proportional to the quantity of hydrolyzed substrate.
The synthetic peptide Boc-Leu-Arg-Arg-AMC is specific for trypsin activity.
The synthetic peptide Suc-Leu-Leu-Val-Tyr-AMC (SEQ ID NO: 8) is specific for chymotrypsin activity.
The synthetic peptide Z-Leu-Leu-Glu-AMC is specific for peptidylglutamyl-peptide hydrolase activity.
The cells are detached from the support in an extraction buffer. Afterwards, the cells are sonicated for 1 minute at 4° C., and then centrifuged at 15000 g for 30 minutes at 4° C. The protein assay is carried out by the BCA kit (Pierce). After incubation of the cellular lysate with the synthetic substrate specific for the activity studied, fluorescence is read with the Synergy spectrophotometer (BIOTEK, Vermont, USA) at 440 nm.

beta-galactosidase = details: 1% peptide, 3 times per week; keratinocytes aged 20 days in culture; X-gal staining
Protocol: These cells are maintained in culture in a special keratinocyte-SFM medium (Invitrogen) at 37° C. under a humidified atmosphere of 5% CO2. Aged NHK cells are obtained by performing a series of repeated sub-cultures. Briefly the cells are seeded in 75 cm^2 flasks, at low density and cultured from 5 to 10 days between 2 passages. […] The cells are then maintained under these conditions for 45 days.
A study of the antiaging effect of the active principle was carried out by evaluating the expression of the beta-galactosidase protein on experimentally aged keratinocytes in culture.
Keratinocytes experimentally aged in 8-well labteck are cultured and maintained for 20 days in the presence or not of 1% peptide of SEQ ID No. 6. The treatment is carried out 3 times per week by direct addition into the medium.
Untreated cells are maintained in culture for the same experiment time and will be used as controls. On the day of labeling, the cells are rinsed and fixed in a 2% glutaraldehyde-2% formaldehyde mixture for 3 minutes. The cells are then rinsed and 300 μl of 5-bromo-4-chloro-3 indolyl b-D-galactosidase, commonly called X-gal (substrate of beta-galactosidase), is applied. Incubation is carried out for 24 hours in the CO2 incubator, and then the cells are rinsed and the labteck is quickly mounted in a suitable medium. Observation is carried out by transmission microscope. […]

Substance	Ki67 protein expression in aged and treated cells compared to untreated cells (Ki67 protein)	trypsin-like activity of 20S proteasome, increase (20S proteasome; substrate Boc-Leu-Arg-Arg-AMC, p=0.033) [%]	chymotrypsin-like activity of 20S proteasome, increase (20S proteasome; substrate Suc-Leu-Leu-Val-Tyr-AMC, p=0.0477) [%]	peptidylglutamyl-peptide hydrolase activity of 20S proteasome, increase (20S proteasome; substrate Z-Leu-Leu-Glu-AMC, p=0.00053) [%]	beta-galactosidase activity in treated cells compared to untreated cells (beta-galactosidase)
Leu-Arg-Lys-Gly-Met-NH2 (LRKGM-NH2) [SEQ ID No. 2]	increased the Ki67 protein	–	–	–	–
Arg-Lys-Gly-NH2 [SEQ ID No. 6]	–	155.3	130	144.6	strongly reduced
